Residue numbers refer to the chain shown, from its start.
T1: cynomolgus transferrin receptor (TfR) ectodomain (ECD) (cynomolgus, UniProt Q5RDH6 121-760 (Pongo abelii entry), biotinylated where captured on streptavidin)
T1 construct: also called cyno TfR; cynoTfR
T1 chain: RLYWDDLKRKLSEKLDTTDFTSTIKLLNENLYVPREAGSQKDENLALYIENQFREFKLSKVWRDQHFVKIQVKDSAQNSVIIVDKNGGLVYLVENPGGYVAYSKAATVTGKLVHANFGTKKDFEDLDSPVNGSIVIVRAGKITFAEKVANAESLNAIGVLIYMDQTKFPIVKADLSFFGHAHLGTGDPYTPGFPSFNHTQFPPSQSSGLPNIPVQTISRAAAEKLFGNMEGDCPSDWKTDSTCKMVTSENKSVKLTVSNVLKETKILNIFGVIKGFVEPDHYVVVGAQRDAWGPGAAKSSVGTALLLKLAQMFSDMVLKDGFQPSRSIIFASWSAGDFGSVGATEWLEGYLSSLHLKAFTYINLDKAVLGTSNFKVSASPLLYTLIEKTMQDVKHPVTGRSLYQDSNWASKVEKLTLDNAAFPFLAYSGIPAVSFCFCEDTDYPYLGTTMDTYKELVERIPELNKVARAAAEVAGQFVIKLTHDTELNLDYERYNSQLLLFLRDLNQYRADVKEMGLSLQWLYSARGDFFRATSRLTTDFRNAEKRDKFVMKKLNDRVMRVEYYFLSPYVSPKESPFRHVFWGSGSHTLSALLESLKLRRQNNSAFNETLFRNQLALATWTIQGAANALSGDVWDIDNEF

B1: Clone CH2C.3 (designed binder)
chain: PCPAPELLGGPSVFLFPPKPKDTLMISRTPEVTCVVVDPQTPPWEVKFNWYVDGVEVHNAKTKPREEEYYSNYRVVSVLTVLHQDWLNGKEYKCKVSNKALPAPIEKTISKAKGQPREPQVYTLPPSRDELTKNQVSLTCLVKGFYPSDIAVEWESNGQPENNYKTTPPVLDSDGSFFLYSKLTVDKSRWQQGNVFSCSVMHEALHNHYTQKSLSLSPGK
B2: Clone CH2C.1 (designed binder)
chain: B1 chain with S71T, N72Y
B3: Clone CH2C.2 (designed binder)
chain: B1 chain with Q40P, T41S
B4: Clone CH2C.8 (designed binder)
chain: B1 chain with Q40A, T41F, S71Q
B5: Clone CH2C.7 (designed binder)
chain: B1 chain with Q40P, T41V
notes: found on phage
B6: Clone CH2C.5 (designed binder)
chain: B1 chain with P42V
B7: Clone CH2C.6 (designed binder)
chain: B1 chain with Q40K, T41M, S71T, N72Y
B8: Clone CH2C.4 (designed binder)
chain: B1 chain with P39F, Q40R, T41G, S71H, N72D
B9: Clone CH3C.35.N390.1 (designed binder)
chain: PCPAPELLGGPSVFLFPPKPKDTLMISRTPEVTCVVVDVSHEDPEVKFNWYVDGVEVHNAKTKPREEQYNSTYRVVSVLTVLHQDWLNGKEYKCKVSNKALPAPIEKTISKAKGQPREPQVYTLPPSRDELTKNQVSLTCLVKGFYPSDIAVEWESYGTEWSNYKTTPPVLDSDGSFFLYSKLTVSKSEWQQGFVFSCSVMHEALHNHYTQKSLSLSPGK
B10: Clone CH3C.35.23.1.1 (designed binder)
chain: B9 chain with Y157F, S188E
B11: Clone CH3C.35.23.6.1 (designed binder)
chain: B9 chain with Y157F, S162V, S188E
B12: Clone CH3C.35.20.1.1 (designed binder)
chain: B9 chain with Y157F, N163S, S188E
B13: Clone CH3C.35.23.2.1 (designed binder)
chain: B9 chain with S162A
B14: Clone CH3C.35.23.3.1 (designed binder)
chain: B9 chain with S162V, S188E
B15: Clone CH3C.35.S413 (designed binder)
chain: B9 chain with N163S
B16: Clone CH2C.17 (designed binder)
chain: B1 chain with P39M, Q40L, T41W, P43V, W44P, E68V, Y70H, S71R, N72P
notes: modified Fc; found by yeast display, tested on phage with holo-Tf
B17: Clone CH2C.22 (designed binder)
chain: B1 chain with P39D, Q40D, T41L, P42T, P43F, W44Q, E68L, Y70V, S71T, N72P
notes: as for B16
B18: Clone CH3B.1 (designed binder)
chain: PCPAPELLGGPSVFLFPPKPKDTLMISRTPEVTCVVVDVSHEDPEVKFNWYVDGVEVHNAKTKPREEQYNSTYRVVSVLTVLHQDWLNGKEYKCKVSNKALPAPIEKTISKAKGQPRFDYVTTLPPSRDELTKNQVSLTCLVKGFYPSDIAVEWESNGQPENNYKTTPPVLDSDGSFFLYSKLTVDKSRWQQGNVFSCSVMHEALHNHYGFHDLSLSPGK
B19: Clone CH3B.9 (designed binder)
chain: B18 chain with D119G, Y120M
B20: Clone CH3B.7 (designed binder)
chain: B18 chain with Y120I
B21: Clone CH3B.5 (designed binder)
chain: B18 chain with D119E, Y120L
B22: Clone CH3B.3 (designed binder)
chain: B18 chain with D119E
B23: Clone CH3B.4 (designed binder)
chain: B18 chain with D119E, Y120M
B24: Clone CH3B.6 (designed binder)
chain: B18 chain with D119E, Y120I
B25: Clone CH3B.2 (designed binder)
chain: B18 chain with Y120M
B26: Clone CH3B.12 (designed binder)
chain: B18 chain with H212S
B27: Clone CH3B.11 (designed binder)
chain: B18 chain with D119G, Y120L

Target: T1, cynomolgus transferrin receptor (TfR) …
Test: ELISA, Fc-Fab fusion titrated on plate-coated cyno TfR; OD650
Description: (§1) The CH2C variants were expressed as Fc fusions to Fab fragments by cloning into an expression vector containing an anti-BACE1 benchmark variable region sequence.

Row | Binder | binding result | EC50 (read off the curve) [nM]
1 | B1 | binds | –
2 | B2 | – | ~8
3 | B3 | binds | –
4 | B4 | binds | –
5 | B5 | binds | –
6 | B6 | binds | –
7 | B7 | binds | –
8 | B8 | – | ~8

Target: T2, human transferrin receptor (TfR) ectodomain (ECD) (human, UniProt P02786 121-760, biotinylated where captured on streptavidin)
T2 construct: also called human TfR; huTfR
Test: ELISA, Fc-Fab fusion titrated on plate-coated human TfR; OD650
Description: as §1

Row | Binder | binding result
9 | B1 | binds
10 | B2 | binds
11 | B3 | binds
12 | B4 | no binding (tested: 1000 nM)
13 | B5 | binds
14 | B6 | binds
15 | B7 | binds

Target: T2, human transferrin receptor (TfR) …
Test: SPR (Biacore), same protocol as previously described; form of human TfR not stated
Target sequence in this assay (P02786 121-760): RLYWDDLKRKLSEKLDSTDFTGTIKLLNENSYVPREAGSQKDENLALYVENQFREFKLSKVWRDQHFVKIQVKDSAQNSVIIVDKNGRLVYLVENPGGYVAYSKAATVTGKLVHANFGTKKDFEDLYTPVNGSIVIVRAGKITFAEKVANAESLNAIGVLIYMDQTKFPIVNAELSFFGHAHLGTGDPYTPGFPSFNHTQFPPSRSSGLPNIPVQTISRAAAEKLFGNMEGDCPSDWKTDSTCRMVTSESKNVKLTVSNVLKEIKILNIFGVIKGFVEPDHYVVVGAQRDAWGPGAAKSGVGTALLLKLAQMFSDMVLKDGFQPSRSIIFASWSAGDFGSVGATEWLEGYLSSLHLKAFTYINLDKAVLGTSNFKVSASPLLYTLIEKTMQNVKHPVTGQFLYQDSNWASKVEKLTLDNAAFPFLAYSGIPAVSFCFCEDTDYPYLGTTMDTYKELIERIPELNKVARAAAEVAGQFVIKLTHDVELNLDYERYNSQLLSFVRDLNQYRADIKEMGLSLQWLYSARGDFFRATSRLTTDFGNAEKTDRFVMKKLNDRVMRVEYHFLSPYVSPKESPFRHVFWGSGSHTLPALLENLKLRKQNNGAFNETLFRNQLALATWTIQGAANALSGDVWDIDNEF

Row | Binder | Kd [nM]
16 | B9 | 2000
17 | B10 | 750
18 | B11 | 2100
19 | B12 | 620
20 | B13 | 690
21 | B14 | 1900
22 | B15 | 1700

Target: streptavidin (Natural streptavidin is a homotetramer; one chain is given.)
Test: phage ELISA, phage dilution series on plate-coated streptavidin; OD650

Row | Binder | binding result
23 | B16 | no binding (tested: dilution 1 (least diluted phage))
24 | B17 | no binding (tested: dilution 1 (least diluted phage))

Target: T1, cynomolgus transferrin receptor (TfR) …
Test: ELISA, Fc-Fab fusion (dimer format) titrated on plate-coated cyno TfR; OD650

Row | Binder | EC50 (read off the curve) [nM] | binding result
25 | B18 | ~3 | –
26 | B19 | – | binds
27 | B20 | – | binds
28 | B21 | – | binds
29 | B22 | – | binds
30 | B23 | – | binds
31 | B24 | – | binds
32 | B25 | ~2 | –

Target: T2, human transferrin receptor (TfR) …
Test: ELISA, Fc-Fab fusion (dimer format) titrated on plate-coated human TfR; OD650
Description: Fc regions comprising the CH3B clone sequences were fused to Fab fragments and were assayed in a dimer format.

Row | Binder | EC50 (read off the curve) [nM] | binding result
33 | B18 | ~4 | –
34 | B19 | – | binds
35 | B20 | – | binds
36 | B21 | – | binds
37 | B22 | – | binds
38 | B23 | – | binds
39 | B24 | – | binds
40 | B25 | ~4 | –

Target: T2, human transferrin receptor (TfR) …
Test: phage ELISA, phage dilution series on plate-coated human TfR without and with holo-Tf; OD650
Description: as §1
Target sequence in this assay (P02786 121-760): as above

Row | Binder | binding result
41 | B16 | binds
42 | B17 | binds

Target: T2, human transferrin receptor (TfR) …
Test: as above
Remark: another data set of the same source
Target sequence in this assay (P02786 121-760): as above

Row | Binder | binding result
43 | B26 | binds
44 | B27 | binds

— patent publication US20230235072A1 (DENALI THERAPEUTICS, published 2023)
